T1: PRO20040 (human IL-17RH2 receptor) (human, UniProt Q8NAC3-3 21-452)
T1 sequence (looked up): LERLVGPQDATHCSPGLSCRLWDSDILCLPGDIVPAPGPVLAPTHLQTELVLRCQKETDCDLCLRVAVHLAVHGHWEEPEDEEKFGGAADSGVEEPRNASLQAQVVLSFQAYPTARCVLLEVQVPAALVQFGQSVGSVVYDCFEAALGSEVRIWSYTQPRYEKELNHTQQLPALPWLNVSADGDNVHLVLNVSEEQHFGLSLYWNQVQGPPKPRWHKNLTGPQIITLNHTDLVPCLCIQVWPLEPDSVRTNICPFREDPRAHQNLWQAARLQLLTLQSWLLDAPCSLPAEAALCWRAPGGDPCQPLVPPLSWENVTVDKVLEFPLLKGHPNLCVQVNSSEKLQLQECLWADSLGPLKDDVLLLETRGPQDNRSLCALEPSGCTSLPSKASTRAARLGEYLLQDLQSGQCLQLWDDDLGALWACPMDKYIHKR

T2: PRO5801 (human IL-17RH1 receptor) as tested in the receptor/ligand screen (human, UniProt Q9NRM6 18-292, limits assumed)
T2 sequence (looked up): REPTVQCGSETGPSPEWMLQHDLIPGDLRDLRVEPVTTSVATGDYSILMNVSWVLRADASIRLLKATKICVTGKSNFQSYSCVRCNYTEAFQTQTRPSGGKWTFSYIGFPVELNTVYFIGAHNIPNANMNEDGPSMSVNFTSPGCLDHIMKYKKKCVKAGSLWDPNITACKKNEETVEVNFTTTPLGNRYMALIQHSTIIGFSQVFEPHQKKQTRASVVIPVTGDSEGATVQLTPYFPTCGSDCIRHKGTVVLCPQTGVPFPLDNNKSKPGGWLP

T3: IL-17RH1 (Homo sapiens, UniProt Q9NRM6)
T3 construct: the extracellular domains (ECDs) of either of the two receptors IL-17R (designated PRO1) and IL-17RH1 (PRO5801)
T3 sequence (Q9NRM6 18-292 limits assumed): T2 sequence (looked up)

B1: PRO1122 (IL-17C ligand) (ligand, UniProt Q9P0M4 19-197, looked up)
chain: HHDPSLRGHPHSHGTPHCYSAEELPLGQAPPHLLARGAKWGQALPVALVSSLEAASHRGRHERPSATTQCPVLRPEEVLEADTHQRSISPWRYRVDTDEDRYPQKLAFAECLCRGCIDARTGRETAALNSVRLLQSLLVLRRRPCSRDGSGLPTPGAFAFHTEFIHVPVGCTCVLPRSV
B2: IL-17F: human IL-17F ligand, SEQ ID NO:4 (protein, listed as Homo sapiens)
chain: MTVKTLHGPAMVKYLLLSILGLAFLSEAAARKIPKVGHTFFQKPESCPPVPGGSMKLDIGIINENQRVSMSRNIESRSTSPWNYTVTWDPNRYPSEVVQAQCRNLGCINAQGKEDISMNSVPIQQETLVVRRKHQGCSVSFQLEKVLVTVGCTCVTPVIHHVQ
B3: PRO21175 (IL-17D ligand) (ligand, UniProt Q8TAD2 16-202, looked up)
chain: AGAPRAGRRPARPRGCADRPEELLEQLYGRLAAGVLSAFHHTLQLGPREQARNASCPAGGRPADRRFRPPTNLRSVSPWAYRISYDPARYPRYLPEAYCLCRGCLTGLFGEEDVRFRSAPVYMPTVVLRRTPACAGGRSVYTEAYVTIPVGCTCVPEPEKDADSINSSIDKQGAKLLLGPNDAPAGP

Assays:
[1] = target: T1, PRO20040 (human IL-17RH2 receptor); experiment: receptor/ligand screen, FIG. 14
From the text: (§1) A PRO polypeptide of the present invention suspected of being a ligand for a receptor is expressed as a fusion protein containing the Fc domain of human IgG (an immunoadhesin). Receptor-ligand binding is detected by allowing interaction of the immunoadhesin polypeptide with cells (e.g. Cos cells) expressing candidate PRO polypeptide receptors and visualization of bound immunoadhesin with fluorescent reagents directed toward the Fc fusion domain and examination by microscope. Cells expressing candidate receptors are produced by transient transfection, in parallel, of defined subsets of a library of cDNA expression vectors encoding PRO polypeptides that may function as receptor molecules. Cells are then incubated for 1 hour in the presence of the PRO polypeptide immunoadhesin being tested for possible receptor binding. The cells are then washed and fixed with paraformaldehyde. The cells are then incubated with fluorescent conjugated antibody directed against the Fc portion of the PRO polypeptide immunoadhesin (e.g. FITC conjugated goat anti-human-Fc antibody). The cells are then washed again and examined by microscope. A positive interaction is judged by the presence of fluorescent labeling of cells transfected with cDNA encoding a particular PRO polypeptide receptor or pool of receptors and an absence of similar fluorescent labeling of similarly prepared cells that have been transfected with other cDNA or pools of cDNA. If a defined pool of cDNA expression vectors is judged to be positive for interaction with a PRO polypeptide immunoadhesin, the individual cDNA species that comprise the pool are tested individually (the pool is “broken down”) to determine the specific cDNA that encodes a receptor able to interact with the PRO polypeptide immunoadhesin.
(§2) In another embodiment of this assay, an epitope-tagged potential ligand PRO polypeptide (e.g., 8 histidine “His” tag) is allowed to interact with a panel of potential receptor PRO polypeptide molecules that have been expressed as fusions with the Fc domain of human IgG (immunoadhesins). Following a 1 hour co-incubation with the epitope tagged PRO polypeptide, the candidate receptors are each immunoprecipitated with protein A beads and the beads are washed. Potential ligand interaction is determined by Western blot analysis of the immunoprecipitated complexes with antibody directed towards the epitope tag.

[2] = target: T2, PRO5801 (human IL-17RH1 receptor) as …; experiment: receptor/ligand screen, FIG. 14
From the text: as §1, §2

[3] = target: T3, IL-17RH1; experiment: SPR competition for receptor binding to immobilized IL-17E; settings: IL-17RH1 31 nM; IL-17F at 1.3 ┘M
Procedure: (§3) The kinetics and affinity of IL-17, IL-17E (PRO10272), or IL-17F (PRO20110) binding to IL-17R or IL-17RH1 (PRO5801) were determined by SPR measurements on a Pharmacia BIAcore 1000 instrument (Phamacia Biosensor, Piscataway N.J.). IL-17 ligand or receptor was immobilized onto a flow cell of a CM5 sensor chip via random coupling to amino groups, N-hydroxysuccinimide chemistry, by using a protocol developed by the manufacturer. An immobilization level of about 500 resonance units (RU) was obtained for IL-17R, IL-17RH1, and IL-17F, whereas IL-17 and IL-17E immobilization levels were 1200 and 1500 RU, respectively. A strong signal was obtained for IL-17R binding to immobilized IL-17. […] After blocking unreacted sites with ethanolamine, binding measurements were performed using a flow rate of 25 ┘L/min. Sensorgrams-were obtained for a series of six, two-fold serially diluted protein solutions. The highest concentration used was 1000 or 500 nM protein and the solutions were prepared in the running buffer, PBS containing 0.05% Tween-20. […] Sensorgrams were evaluated according to a 1:1 binding model by non-linear regression analysis using software supplied by the manufacturer. […] The amount of bound receptor was determined from the resonance signal obtained after completion of the association phase. […]

[4] = target: T4, Cos cells transfected with IL-17R (Homo sapiens, UniProt Q96F46); experiment: Binding to Cos cells transfected with IL-17R; assay type: cell-based; settings: data not shown
T4 construct: expressed in transfected cells; host or cells: Cos cells

[5] = target: T5, IL-17R (Homo sapiens, UniProt Q96F46); experiment: SPR competition for receptor binding to immobilized IL-17; settings: IL-17R 500 nM; IL-17F at 2 ┘M
T5 construct: the extracellular domains (ECDs) of either of the two receptors IL-17R (designated PRO1) and IL-17RH1 (PRO5801)
Procedure: as §3

Molecule	binding result [1]	binding result [2]	competition for binding of IL-17RH1 to immobilized IL-17E [3]	binding to Cos cells transfected with IL-17R [4]	competition for binding of IL-17R to immobilized IL-17 [5]
B1	no binding	no binding			
B2			could not block binding	enhanced binding	no competition
B3	no binding	no binding			

From patent US20070160576A1, “IL-17A/F heterologous polypeptides and therapeutic uses thereof” (Genentech, Inc., priority 2001, published 2007)
